The values that follow come from PMC8254717, “Characterization of the DdrD protein from the extremely radioresistant bacterium Deinococcus radiodurans”.

Data set [1] has as its target T1, DdrD (Deinococcus radiodurans R1 (ATCC 13939), UniProt Q9RXI7 1-198).
T1 sequence: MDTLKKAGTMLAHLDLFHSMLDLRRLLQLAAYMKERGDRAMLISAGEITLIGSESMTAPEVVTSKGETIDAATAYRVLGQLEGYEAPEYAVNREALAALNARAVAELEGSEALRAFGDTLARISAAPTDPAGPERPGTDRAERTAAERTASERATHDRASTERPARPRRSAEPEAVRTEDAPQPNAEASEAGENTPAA
Briefly: EMSA; 5 mM Mg2+; DdrD up to 8 uM; not completely shifted at highest concentration; proteinase K releases DNA; EMSA: 40 mM Tris-HCl pH 7.8, 5 mM MgCl2, 1.5 mM DTT, 50 mM NaCl, 2.5% glycerol, 3.3 nM DNA, 15 min at 4 C; 6% native PAGE in 0.25X TBE with 10% glycerol. The note with it: protein: recombinant; tags: none (untagged; native stop codon in reverse primer, pET21a NdeI/EcoRI); label: 5' Cy5. (In EMSA bound probe runs differently from free probe, usually more slowly.)

Data set [2] addresses T1, DdrD. Description: EMSA; 5 mM Mg2+; same DdrD concentrations as oligo 1; EMSA: 40 mM Tris-HCl pH 7.8, 5 mM MgCl2, 1.5 mM DTT, 50 mM NaCl, 2.5% glycerol, 3.3 nM DNA, 15 min at 4 C; 6% native PAGE in 0.25X TBE with 10% glycerol. The conditions noted are these: protein: recombinant; tags: none (untagged; native stop codon in reverse primer, pET21a NdeI/EcoRI); label: 5' Cy5 on strand 1; blunt.

B1: oligo 1 (67-mer ssDNA) (ssDNA)
DNA: CTGTTTAAGAAATTCACCTCGAAAGCAAGCTGATAAACCGATACAATTAAAGGCTCCTTTTGGAGCC
As for B1, the binding result in the data set with DdrD [1] is reported as “binds”.

B2: oligo 2 (67-mer dsDNA) (dsDNA)
DNA 1: CTGTTTAAGAAATTCACCTCGAAAGCAAGCTGATAAACCGATACAATTAAAGGCTCCTTTTGGAGCC
DNA 2: GGCTCCAAAAGGAGCCTTTAATTGTATCGGTTTATCAGCTTGCTTTCGAGGTGAATTTCTTAAACAG
Consider B2, for which, in the data set with DdrD [2], the binding result is recorded as “no binding”.
